In patent US20250241939A1, “NUCLEIC ACID-BASED DELIVERY SYSTEMS AND USES THEREOF” (Kodikaz Therapeutic Solutions, Inc., priority 2022, published 2025):

B1: 49 (nucleic acid, listed as Homo sapiens)
chain: CTTTAACCTCCTTGTTACGTTTGTCTCTTCCAGAATCGAAGCTGTAAAACTACAAATGGTTCTTCAAATGGAGCCCCAGATGCAGTCCATGACTAAGATCTACCGCGGACCCCTGGACTGGCCTGCTAGCCCATGCTCCAATGTTGATGACATTGAAGGCACCCCTCCCAAGGAAATCTCAACTGCACGACCCCTACTATGCCCCAATTCAGCATGAAGCAGTTAAGAGCGGTTGTCAGCCAACCTCCCCAACAGCACTTGGGTTTTCCTGTTGAGAGGTGGGACTGAGAGA
B2: 55 (nucleic acid, listed as Homo sapiens)
chain: GCGGTGGCTCACGCTTGTAATCCCAGCACTTTGGGAGGCCGAGGTGGGCGGATCACGAGGTCAGGAGATCAAGACCACGGTGAAACCCCATCTCTACTAAAAATATAAAAAATTAGCCGGGCGTGGTGGTGGGCGCCTGTAATCCCAGCTACTCAGAGAGGCTGAGGCAGGAGAAGGGCGTGAACCCGGGAGGCGGAGCTTGTAGTGAGCTGAGATCGCGCCACTGCACTCCAGCACCCCAGCCTGGGTGACAGAGCGAGACTCCGTCTCAAAAAAATAATAATAATAATTAAATAAATAA
B3: 47 (nucleic acid, listed as Homo sapiens)
chain: AGGCCTGGCACAGTGGCTCATGCGTGTAATCCCAACACTGCGGGAAGCTGAGGCAGGAGGATCACTTGAGCCCAGGAGCTCATGGCTGTAGTGAGCTGTGATTGCACCACTGCACTGCACTCCAGCCTGGGCAACAGCAAGACCCTGTCTCCAAAAAAAAAAAACAAAACAAATTAAT
B4: 39 (nucleic acid, listed as Homo sapiens)
chain: GTATTTAGATTCCCAGACTTTGGAGCCAGATCGGCTGAGTTCAAACCCTGTCTGTGCAACTATCAGCTGTTCAGCTGTGTGACCTTGGGCAAGTTACTTAACCTCTCTGAACCCTGATTCCTCCTGCAAACGGTGGGAAAAATAATAGAACCAATCTCTCTGGGTTGCTGTAAGGATTAAATTAATTTACAGTGCATGTAACATGCTTACAGCAATGTCTGGCACACAGTAAGCACTAAGTATTTGTTGTTATTTGTCATC
B5: 52 (nucleic acid, listed as Homo sapiens)
chain: TCATCTCACAGAGTTAAACCTTTCTTTTGATTGAGCAGTTTTGAAACTCTCTTTTTGTAGAATCTACAAGTGGACATTGGGAGCTCTTTGAGGCCTATGTTAGAAAAGGAAATATCTTCACATAAAACCTAGATAGAGGCAATCTGAGAAACATCTTTGTGATGTGTGCATTCATCTCACGGAGTTAAACCTTTCTTTTCGTTGAGCAGTTTTTAAACTGTCTTTTTGTAGAATGTGCAAGTGGACATTTGGAGCGCTTTTTGTCCTATGGTGGGAAAGGAAGTATCTTCACATAAAAACTAGACCGAAGAATTCTGAGAAACTTCTTTGTGACGTGTACGTTCATCTCACTGAGTTGAACCTTTCTTTTGATTGAGCAGTTTGGAAACACTCTTTTTGTAGAATCTGCAAGTAGACATTTGGAGCGCTTTTCAGCCTACGGTAGAAAAGGAAATATCTTCACATCACAAAGAGAGAGTTTCAAAACTGCTCTATCAAAAGAAAGGTTTAACCCTGTGCGATGAATGCACATATCACAAAGAAGTTTCTCAGATTGCTTCTGTCTAGATTTTATGTGAAGATATTCCTTTTTCCACCATAGGCCTCAAAGCGCTCCAAATGTCCACTTGCAGATTCTACAAAAAGAGTGCTTCCAAACTGCTCGATGAAAAAAATGGTTCAACTCTGTGAGATGAATGCACGCATCACAAAGAAGTTTCTCAGAATTTTTCTATCTAGTATTTATTTGAAGATATTTCATTTTCCACCAT
B6: 58 (nucleic acid, listed as Homo sapiens)
chain: TAGATGGAGGGGGAAAAACAGGGTGGGGAGCGGGAGGGAGGGAAGGTTTTGCAGAAAGACGGCGGTTAAAAAGTTTATGGGTAGATGGAGGGGGAAAAGAGGGTGGCAAGTGGGAGGAGGAAAGAGGGTGATAAGGGGGGGAAGTGGGGGTGAGCAGTAGGGAGAGAAGGTTTTGTGAAAAAAATGGGGAGAAAGGTTTTGGTTAGACGGGAGAAAAGAGGGTAACAAGTTGGGGAAGGAAAAAGAGGGTAGCTAGGAAGAAGACAAGGTTTTGCGAAAAGATAGCGGCCAGAAAAGAAAGACGGTGGAGAAAGGAAAGACGGTGGGTAAAAAGTGGGTAGATGGAGTGGGGAAAGAGGGT
B7: 46 (nucleic acid, listed as Homo sapiens)
chain: CACCCAAGTCACCTCTTGAATGCTTTGCTGCTTAGACATTTCTTCTGCCAGATACCCTAAATAATCTCTCTCAAGTTCAAAGTTCCACAAATCTCTAGGGCAGGGGCAAAATGCCACCAGTCTGTTTGCTAAAACATAACAAGAGTCATCTTTGCTCCAGTTCCCAACAAATTCCTTATCTCCATCTGAGACCACCTTATCCTGGATTTCATTGTCCATATCATTATCAGCATTTTGGTCAAAGCCACTCCACAAGTCCCTAGGAAGTTCCAAACTTTCCCACATTTTCCTGTCTTCTTCTGAGGCCTCCAACCTATTCCACCCTCTGTCTGTTACCCAGTTCCAAAGTTGCTTCTACATTTTCAGGTGTCTTTTCAGCAGTGCCACACTCTACTGGTACTAATTTAC
B8: 50 (nucleic acid, listed as Homo sapiens)
chain: CAGTCTTTCAGGACCAGAAGAGATGGATTTTAGGTTTTCCTTCCACTCAATGTATTCTATATGTACCCTAATCAACAAACATGCCTGGTTGTCACAGGTAGAAGGGGTCTCTACTCTGAATCATTCAGAGAAGAAATAATCATATTCTTTCGATGCTATCACTAACACAGGACCGTGATCCGAGACAACCAGGTTCAGTTCTTGATATGTAAAGGAATTTGGGAAAATATCATCTCTCACCACAAAATCTGTATTTTTATGTATATTTAAGCAAAATCCTGTTTTGGTCATCATTTTCTTTACCTTTCTTCTATATCCATCCTAATCTCCCTTTCAGC
B9: 41 (nucleic acid, listed as Homo sapiens)
chain: CCCTTGAACTTATTAAAATCTTTTATAATGTAGTACATTTACTGACTGCTTTCAGGCAGGCATGAGGACCTTTCACTCCATTTGCTCCATTGTCCCTTTTGAAGGATTCTTGTCATATATATAAAACCTCTTAAGACATAATGTTATTGTTTTATATACTCTTTAATCACCTACATCTTTGCACTTTAATATTTCCTAAATTTGCATTCTTCTCTCTGGGACTAGAAGACCTCAGCTTAGCGGTTCTTTTCATGTGGGCCTGAGAAATTTTCTCACTTTTTGTTTCACTTTCATTCTTGAAGGAACGTTTCACTGGTTATAGGATGCAAGGTTAGCGGTTATTCTCTTCTGCATCTTCCCACTGCATTGTCTTCTGAATCTTATAATTTATGTAAAAACATTAGTTGTCTGTCTTCCCATTGCTTCTGTGAAAATAATGCATGTTTTCCTCTGGTTGTTTTTGACATTTTCTTTGTGTCTGTTTCTCAGCAATTTTTCCATGATATATGCTCGGAGCGGGCTTACTTATCCTACACCCTGAATCTGTAGCTTGACGTCTTTTTGTCAACTTTGGAAAGTTTTTGGCATTATCTCATCAAATATTTCCCCTGTCCTGTTCTTGCTCTTCTCTTGCTGGAGTGCAGTCGTTCCTGTATTAGACCTTTGCATCATGTTCTAGGTATTTTTATCT

Tested on: MIA (pancreatic cancer) cell genome
Experiment: ctDNA coculture with MIA cells, whole genome sequencing: genomic insertion sites, transposons at insertion points and SNVs (pancreatic cancer)
Type: cell-based, human
Settings: TABLE 4; for Gene: gene at identified genomic insertion site; for Location: identified genomic insertion site, chromosome; for No. SNP: number of single nucleotide variants (SNVs or SNPs) identified, polynucleotides for pancreatic cancer cells; for Chr location: position on the chromosome of the identified genomic insertion site
Method: The integration of ctDNAs into the host cell genome was evaluated. ctDNA was extracted from patient plasma, cultured for 24 hours with cells of a matching cancer cell type or non-matching cancer cell type, and whole genome sequencing was performed. The cell lines used were MM1s (multiple myeloma, MM) and MIA (pancreatic cancer, PC).
The sequence data was used to reconstruct genomic contigs for each experimental condition by de novo assembly. […] Coculture contigs carrying a ctDNA insertion were identified using NucDiff analysis.
Experiments were designed to identify the presence of transposons in ctDNA fragments. To map ctDNA genomic junctions more precisely, a PACBIO probe was ligated to multiple myeloma and pancreatic cancer ctDNA samples to label their 5′ and 3′ ends. Whole-genome sequencing of DNA from cells with ctDNA genomic integration was done using the Illumina platform. De novo assembly was performed on the sequencing output. ctDNA contigs containing PACBIO adaptor were then matched to those contigs containing inserted ctDNA sequences identified in the coculture experiments. Transposable element on ctDNA sequences at the insertion points (<100 nucleotides from transition point between cell and ctDNA) were detected and classified using RepeatMaster.
A search was conducted for transposons that preferentially target cells of matching tumor types. The lists of transposons identified at the ctDNA insertion point in matching and mismatched coculture conditions were compared (e.g., MM ctDNA with MM cells or PC cells). Transposons were selected that were uniquely or preferentially inserted in the matching conditions.
Whole-genome sequencing and Whole exon sequencing: ctDNA was extracted from 10 MM and 10 PC patients. DNA from CD138 (+) cells and from cell lines used in in vitro experiments (MM1s and MIA) was extracted using Blood & Cell Culture DNA Mini Kit (Quiagen, MD). DNA from […] paraffin embedded pancreatic tumors was obtained using QIAamp DNA FFPE Tissue Kit Print (Qiagen, MD).
After extraction, ctDNA was ligated to the PACBIO adaptor ([…]) using the ABM DNA Library Prep Kit for Illumina Sequencing (Applied Biological Materials Inc. Canada). PACBio-labeled ctDNA and regular ctDNA were subjected to standard methods for library preparation and sequencing using Illumina and Agilent protocols, respectively. Applied Biological Materials Inc. prepared the libraries and performed whole-exon and -genome sequencing.
Identification of transposable elements and its nucleotide variants: To determine the locations of transposable-like regions in contigs, sequences were analyzed and transposable elements (TEs) were identified and classified using RepeatMasker version 4.1.0 and the Dfam database (release 3.1) of repetitive DNA families was used as a reference for identifying repeats in ctDNA contig sequences that were part of qualifying structural events. For each repeat sequence identified by RepeatMasker, the overall frequency of the specific repeat (e.g., for AluSp or L1) and their parent class (e.g., SINE) was computed.
Once the TE elements were identified, hit repeats/TE sequences, unique contigs for all samples, and insertion sequence were aligned with MAFFT software version. Mutations in TE sequences were identified by comparison of nucleotides at each position in the multiple sequence alignment with the “Biostrings” R package (version 4.1). A position was considered to contain mutation if the substitution was present in contigs of all samples.

Molecule | Gene | Location | No. SNP | Chr location
B1 | AIG1 | Chr 6 | 5 | 143409567
B2 | – | Chr 14 | 1 | 103067410
B3 | LINE1/Alu | Chr 10 | 4 | 14247220
B4 | – | Chr 2 | 1 | 27942978
B5 | – | Chr 7 | 55 | 57988111
B6 | – | Chr 13 | 1 | 19693028
B7 | – | Chr 5 | 2 | 107782747
B8 | – | Chr 7 | 3 | 18828526
B9 | GRB10 | Chr 7 | 1 | 50660129
